Data taken from US20240207421A1, “NERVE TARGETING PEPTIDES AND METHODS OF USE” (ALUME BIOSCIENCES, INC., priority 2020, published 2024).

target: T1, Human Myelin Basic Protein (Homo sapiens, UniProt P02686); assay: phage display, NGS count; conditions: not given
Target sequence in this assay (P02686 135-304 limits assumed): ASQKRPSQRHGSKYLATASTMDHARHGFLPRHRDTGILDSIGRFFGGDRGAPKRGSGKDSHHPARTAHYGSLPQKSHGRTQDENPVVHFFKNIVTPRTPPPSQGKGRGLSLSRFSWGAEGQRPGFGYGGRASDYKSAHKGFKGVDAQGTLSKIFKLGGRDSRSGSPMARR

Count	Substance
7	AAGQRSF (peptide)
6	AGSLLSL (peptide)
7	AILTRPP (peptide)
6	AIPPRKL (peptide)
6	AISWKGF (peptide)
6	AKFTMWV (peptide)
7	ALGTRPL (peptide)
6	ALRDTRV (peptide)
6	ALYNQMT (peptide)
9	ANLSRSV (peptide)
6	AQFLTIY (peptide)
6	AQLGAFR (peptide)
6	ARVPNPL (peptide)
7	ASNTSKG (peptide)
7	AVRQTTM (peptide)
6	DSQEKSV (peptide)
8	DSYLLSA (peptide)
6	DVRIWTL (peptide)
7	DVVKDVI (peptide)
6	ELKSLRF (peptide)
6	ESKSPRE (peptide)
7	ESPYPHS (peptide)
6	ETHYKIA (peptide)

Count	Substance
6	FDLLARK (peptide)
7	FKLPWAS (peptide)
7	FLNQAPT (peptide)
6	FQLSYET (peptide)
7	FSAGVGK (peptide)
9	FSARTNT (peptide)
8	FVLPNKN (peptide)
6	GEPALVT (peptide)
7	GPITHAI (peptide)
6	GPRVTPH (peptide)
6	GQWWKML (peptide)
6	GRHTDVV (peptide)
6	GSPYGWG (peptide)
6	GVAEVGL (peptide)
6	HAHWARL (peptide)
7	HFLRPSD (peptide)
6	HFTFFPI (peptide)
9	HFYGPGP (peptide)
7	HLLKTHS (peptide)
7	HMAGVNQ (peptide)
7	HPDTLPQ (peptide)
7	HPTGTPT (peptide)
9	HPWLGNR (peptide)

Count	Substance
6	HPWSHPN (peptide)
6	HQMRTML (peptide)
6	HQPLFPR (peptide)
6	HRTHLHQ (peptide)
6	HSGPLLP (peptide)
6	HSSATMS (peptide)
7	HTGLRSL (peptide)
9	HYSPNVM (peptide)
6	IGTRWHQ (peptide)
8	IILPSAQ (peptide)
6	INFPFAV (peptide)
6	IPIPYRT (peptide)
6	IPYSQMP (peptide)
7	KGQPLFR (peptide)
6	KIITTKS (peptide)
6	KMSLAPP (peptide)
8	KNSIAPR (peptide)
6	KVHHLAR (peptide)
7	KYRHGAE (peptide)
6	LELHQNV (peptide)
7	LFRRVTE (peptide)
6	LITHPQL (peptide)
6	LMLPQLE (peptide)

Count	Substance
8	LPPQISR (peptide)
7	LTKSLNH (peptide)
6	LVPPVNH (peptide)
10	MDLSLKP (peptide)
6	MNSPLAQ (peptide)
7	MPLLELP (peptide)
8	MPSLKHQ (peptide)
6	MQRLGAD (peptide)
7	MTNHGNA (peptide)
9	NFAQHMQ (peptide)
6	NGPNSLQ (peptide)
6	NGVSSSL (peptide)
7	NLKLWTR (peptide)
7	NLLQGVM (peptide)
6	NLTYLRF (peptide)
7	NMYPRVT (peptide)
8	NPTDTNK (peptide)
7	NSSPHQI (peptide)
10	NTPKVLA (peptide)
8	NTSLSFK (peptide)
6	QGAYVRP (peptide)
7	QGTLFDT (peptide)

target: T1, Human Myelin Basic Protein; assay: Phage display library screening (Example 2, Python script analysis), binding to Human Myelin Basic Protein; design: Enzo 200-606-M001 from human; purchased Enzo 200-606-M001; host or cells: human brain (tissue-derived); conditions: R3 Myelin Basic Protein; combined unique sequence count, Python/R script analysis
Experimental: Phage display library screens were used to identify peptides that bind to target proteins (including specific laminin trimers) that are expressed in human nerves, as described in Table 3. These screens were also carried out to identify peptides that could bind selectively to nerves versus muscle. Such peptides could therefore be useful for systemic in-vivo labeling of nerves during fluorescence assisted surgery. Specifically, m 13 phage libraries expressing 7 or 12 random amino acid peptides, or a cyclic peptide CX7C, on the N-terminus of the minor coat protein pIII (New England Biolabs; NEB) were processed through multiple rounds of selection for binding to target proteins expressed in nerves, or to excised human nerves, nerve extracts, or muscle, as described further below.
For screening against the specified target proteins in Table 1, including LN211, LN411, LN421, and LN521, the phage library was processed by up to 4 binding and wash cycles. For selection, phage libraries were incubated for up to 24 hours at 4° C. in 96 well plates that had been coated with one of the target proteins. Plates were then washed with PBS and phage were eluted using 0.2M glycine pH 2.0. Phage supernatants where then neutralized with Tris pH 9.0 prior to plating on TGI bacteria and LB agar plates. Colonies were counted to determine titer followed by DNA preparation of pools of phage and NextGen sequencing. After rounds of selection, phage were pooled and amplified for iterative selection. Phage that were bound at each round were sequenced. NextGen sequencing of pools after 2, 3 and 4 rounds of selection was used to isolate candidate sequences that were analyzed further to identify those that specifically bound each unique target protein.
Python Script Analysis: For all NEB sequence datasets, a python script was used to translate, trim, and filter the peptide sequences. The script translated the nucleotide sequences, translating amber codons as glutamine in peptide sequences, and then trimmed the end sequences that come from the vector. Secondly, the script combined the unique counts of trimmed peptides with identical sequences. […] Another python script was used to group peptides from different assays according to protein target (Myelin Protein Zero, Myelin Proteolipid Protein, Myelin Basic Protein, and Nidogen-2) and also combine the unique sequence counts for each peptide. An R script was written to merge the peptide sequences from different data files and determine peptides specific for each protein target but absent from different protein binding datasets. Peptide sequences were ranked by unique sequence count.
Target sequence in this assay (P02686 134-304): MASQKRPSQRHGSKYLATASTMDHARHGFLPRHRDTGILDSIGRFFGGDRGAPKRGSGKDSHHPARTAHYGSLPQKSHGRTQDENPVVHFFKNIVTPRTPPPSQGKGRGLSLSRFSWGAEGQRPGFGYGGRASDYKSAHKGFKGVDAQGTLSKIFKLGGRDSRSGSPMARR

Substance	Count
TPVRLNT (R3 Myelin Basic Protein-binding peptide)	6
TQMTMDS (R3 Myelin Basic Protein-binding peptide)	10
TRIPILL (R3 Myelin Basic Protein-binding peptide)	6
TSPPLAH (R3 Myelin Basic Protein-binding peptide)	8
TSRLVST (R3 Myelin Basic Protein-binding peptide)	8
TTTQGHP (R3 Myelin Basic Protein-binding peptide)	6
VAHQRVS (R3 Myelin Basic Protein-binding peptide)	8
VGTFWTR (R3 Myelin Basic Protein-binding peptide)	6
VIRTAAM (R3 Myelin Basic Protein-binding peptide)	6
VLSPYHN (R3 Myelin Basic Protein-binding peptide)	6
VPTLRIP (R3 Myelin Basic Protein-binding peptide)	8
VRGTPNH (R3 Myelin Basic Protein-binding peptide)	6
VSFTLEP (R3 Myelin Basic Protein-binding peptide)	7
VVDMSTY (R3 Myelin Basic Protein-binding peptide)	7
WDLPQNR (R3 Myelin Basic Protein-binding peptide)	6
WDLRHSK (R3 Myelin Basic Protein-binding peptide)	6
WPDLRIL (R3 Myelin Basic Protein-binding peptide)	7
WSLPLLS (R3 Myelin Basic Protein-binding peptide)	7
WSPRWPS (R3 Myelin Basic Protein-binding peptide)	7
WTYHPTT (R3 Myelin Basic Protein-binding peptide)	6
WVPDRSL (R3 Myelin Basic Protein-binding peptide)	6
YATATPS (R3 Myelin Basic Protein-binding peptide)	8
YLPPPLP (R3 Myelin Basic Protein-binding peptide)	7
YPTYLSY (R3 Myelin Basic Protein-binding peptide)	6
YPYVPIY (R3 Myelin Basic Protein-binding peptide)	6
YSSRLND (R3 Myelin Basic Protein-binding peptide)	6
YTASPRW (R3 Myelin Basic Protein-binding peptide)	6
YVNRVKQ (R3 Myelin Basic Protein-binding peptide)	6
